84 variants from the RNAGym collection of RNA variant scans (doi:10.1073/pnas.2313332121) can be followed below.

The chains are these.
B1: TPR t1 (parent)
chain: GACCAAUCUGCCCUCAGAGCUCGAGAACAUCUUCGGAUGCAGAGGAGGCAGGCUUCGGUGGCGCGAUAGCGCCAACGUCCUCAACCUCCAAUGCAUCCCACCACAUGAUGAUGCCUGAAGAGCCUUGGUUUUUUG

The variants in the data set derive from B1. Kind of data set: polymerase ribozyme fitness, log enrichment relative to wild type (log ratio); higher = more active; in vitro selection for triplet polymerase activity. In outline:
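Mutant libraries of both subunits of a heterodimeric triplet polymerase ribozyme were PCR-built, transcribed, and selected once in triplicate, with frozen incubation at −7 °C and capture of gel-excised extended constructs on streptavidin beads before RT-PCR. Illumina sequencing of input and output libraries was filtered to genotypes with ≥10 input reads and ≥1 read per output. Fitness is the logarithm of genotype enrichment over wild-type enrichment, using inverse-variance-weighted replicate averages. The logarithm is base 2.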
A18U A29G A43U G52A G60A C88U C94U: the “polymerase ribozyme fitness (log ratio)” value was -5.06.

As for A18U C49A, the “polymerase ribozyme fitness (log ratio)” value is -2.29.

For A18U C49G, the “polymerase ribozyme fitness (log ratio)” value is -3.54.

Consider A18G U78C G117U C123A C124G, for which the “polymerase ribozyme fitness (log ratio)” value was -1.41.

On to A18U A46C G52A, for which the “polymerase ribozyme fitness (log ratio)” value is -4.31.

For A18U A83C C94G C115G C123G U134G, the “polymerase ribozyme fitness (log ratio)” value is -1.77.

Regarding A18G U129A, the “polymerase ribozyme fitness (log ratio)” value is -4.53.

Consider A18U C28U, for which the “polymerase ribozyme fitness (log ratio)” value is -5.29.

As for A18U C22U A37U A118U, the “polymerase ribozyme fitness (log ratio)” value is -5.28.

Take A18U G93C C97U G128U: the “polymerase ribozyme fitness (log ratio)” value was -5.92.

For the variant A18G G19A A43C C56U C70U G110A, the “polymerase ribozyme fitness (log ratio)” value was -4.41.

Turning to A18U C40A G120U C123A U129C, the “polymerase ribozyme fitness (log ratio)” value was -4.63.

For the variant A18U U21A A24G U55G, the “polymerase ribozyme fitness (log ratio)” value was -3.96.

Regarding A18U G42A U130A, the “polymerase ribozyme fitness (log ratio)” value is -3.41.

With A18U G113U, the “polymerase ribozyme fitness (log ratio)” value is -4.9.

As to A18U G93C C94U, the “polymerase ribozyme fitness (log ratio)” value is -3.75.

Consider A18U C72U, for which the “polymerase ribozyme fitness (log ratio)” value is -2.03.

Turning to A18U U21A G51C C53G C56A G57C C79U C115U U130G U131A, the “polymerase ribozyme fitness (log ratio)” value is -5.86.

For the variant A18U C62U C86A C114U, the “polymerase ribozyme fitness (log ratio)” value was -5.98.

Consider A18U C94U C101A G110A, for which the “polymerase ribozyme fitness (log ratio)” value is -6.65.

Take A18U C64U C97U U116C G120A: the “polymerase ribozyme fitness (log ratio)” value was -4.84.

Regarding A18U C40U C94U, the “polymerase ribozyme fitness (log ratio)” value is -3.46.

A18U G60A C88G A118U U130G: the “polymerase ribozyme fitness (log ratio)” value was -3.95.

Consider A18U G48A U59G G113A G135U, for which the “polymerase ribozyme fitness (log ratio)” value is -4.36.

A18G G42A G63U G113A U132A: the “polymerase ribozyme fitness (log ratio)” value is -3.41.

Regarding A18U G61A C123G, the “polymerase ribozyme fitness (log ratio)” value came out at 0.0966.

Turning to A18U C70G C79A, the “polymerase ribozyme fitness (log ratio)” value is -7.76.

On to A18U A91G, for which the “polymerase ribozyme fitness (log ratio)” value is -1.85.

In the case of A18U A46U G61U A90C C115G, the “polymerase ribozyme fitness (log ratio)” value was -2.56.

Take A18U G45A C73U: the “polymerase ribozyme fitness (log ratio)” value was -2.84.

As to A18G G57U, the “polymerase ribozyme fitness (log ratio)” value was -3.92.

As for A18G G19U C49U C85U G110C U112G, the “polymerase ribozyme fitness (log ratio)” value was -5.77.

Consider A18U A41U, for which the “polymerase ribozyme fitness (log ratio)” value was -2.88.

For A18U C20G A50U C72G G113A, the “polymerase ribozyme fitness (log ratio)” value is -4.8.

A18U C70U: the “polymerase ribozyme fitness (log ratio)” value is -3.33.

For the variant A18U C70A, the “polymerase ribozyme fitness (log ratio)” value is -5.29.

In the case of A18U C70G, the “polymerase ribozyme fitness (log ratio)” value is -6.16.

On to A18U G44A, for which the “polymerase ribozyme fitness (log ratio)” value is -2.99.

On to A18U G44U, for which the “polymerase ribozyme fitness (log ratio)” value is -2.49.

A18U C40U G113A G117A: the “polymerase ribozyme fitness (log ratio)” value is -6.

For the variant A18U G44U C124U, the “polymerase ribozyme fitness (log ratio)” value was -1.28.

Turning to A18U G77U, the “polymerase ribozyme fitness (log ratio)” value was -2.27.

A18U G110U: the “polymerase ribozyme fitness (log ratio)” value was -3.52.

In the case of A18U C40A, the “polymerase ribozyme fitness (log ratio)” value was -3.76.

As for A18U C56U C64A G69A U112C U129A, the “polymerase ribozyme fitness (log ratio)” value was -5.64.

In the case of A18G C114U, the “polymerase ribozyme fitness (log ratio)” value is -3.96.

For the variant A18U C28A C85G A111U, the “polymerase ribozyme fitness (log ratio)” value was -4.7.

In the case of A18U C22U A43G G60A, the “polymerase ribozyme fitness (log ratio)” value was -6.88.

As to A18U G36U, the “polymerase ribozyme fitness (log ratio)” value was -3.48.

For A18U G36A, the “polymerase ribozyme fitness (log ratio)” value is -3.63.

A18U C72U C85A: the “polymerase ribozyme fitness (log ratio)” value is -3.5.

Turning to A18G G69U, the “polymerase ribozyme fitness (log ratio)” value was -1.47.

On to A18U G44C U92A A119U C123A, for which the “polymerase ribozyme fitness (log ratio)” value is -5.44.

In the case of A18G G69U U81C G107U, the “polymerase ribozyme fitness (log ratio)” value was -3.65.

On to A18G G113U G128U U132A, for which the “polymerase ribozyme fitness (log ratio)” value is -5.64.

Consider A18U G71U U92G, for which the “polymerase ribozyme fitness (log ratio)” value is -5.1.

Turning to A18U C20G, the “polymerase ribozyme fitness (log ratio)” value is -4.36.

For the variant A18G G48U, the “polymerase ribozyme fitness (log ratio)” value is -2.96.

Take A18U G45A: the “polymerase ribozyme fitness (log ratio)” value was -2.78.

As to A18U A83U C101A, the “polymerase ribozyme fitness (log ratio)” value was -3.63.

As to A18U C72U U78A, the “polymerase ribozyme fitness (log ratio)” value is -2.59.

On to A18U A37C C82G U92C U116A A121G, for which the “polymerase ribozyme fitness (log ratio)” value was -5.42.

As for A18U C62U C64U A74C A90U A121C U129A, the “polymerase ribozyme fitness (log ratio)” value is -6.59.

For the variant A18G G107A, the “polymerase ribozyme fitness (log ratio)” value is -3.37.

For A18U A50U, the “polymerase ribozyme fitness (log ratio)” value is -4.84.

Take A18U A37U U78G A84U U87A: the “polymerase ribozyme fitness (log ratio)” value was -4.45.

As for A18U C124U, the “polymerase ribozyme fitness (log ratio)” value is -1.01.

In the case of A18U G61A, the “polymerase ribozyme fitness (log ratio)” value was -1.19.

With A18U G61C, the “polymerase ribozyme fitness (log ratio)” value was -5.22.

Regarding A18U C62U, the “polymerase ribozyme fitness (log ratio)” value was -2.48.

As for A18U C62G, the “polymerase ribozyme fitness (log ratio)” value was -4.86.

Turning to A18U A50C C70A G71A C123U, the “polymerase ribozyme fitness (log ratio)” value was -6.84.

Turning to A18G G36U C56G, the “polymerase ribozyme fitness (log ratio)” value is -6.14.

On to A18U C79A G93A U116A C124U, for which the “polymerase ribozyme fitness (log ratio)” value is -6.2.

As for A18U A43G, the “polymerase ribozyme fitness (log ratio)” value is -1.5.

With A18G G60U U96G A108U, the “polymerase ribozyme fitness (log ratio)” value is -7.14.

Turning to A18U A83U G120A, the “polymerase ribozyme fitness (log ratio)” value was -2.42.

As for A18U C73A, the “polymerase ribozyme fitness (log ratio)” value is -3.04.

For the variant A18U C53U C124G, the “polymerase ribozyme fitness (log ratio)” value was -0.337.

Regarding A18U A111C, the “polymerase ribozyme fitness (log ratio)” value was -2.74.

With A18U G127C, the “polymerase ribozyme fitness (log ratio)” value was -3.45.

As for A18U G48C G71U C82A, the “polymerase ribozyme fitness (log ratio)” value is -5.32.

For A18U C89U, the “polymerase ribozyme fitness (log ratio)” value was -1.53.

As to A18G G61C C114U, the “polymerase ribozyme fitness (log ratio)” value is -5.18.
